In one assay the target is T1, rat serum albumin (rat, UniProt P02770 25-608).
T1 construct: also called Rat SA; RSA
The assay can be described thus: phage binding.

The target of assay [1] is T2, rabbit serum albumin (rabbit, UniProt P49065 25-608).
T2 construct: also called Rabbit SA; BuSA
In words: peptide competition; head prints RSA, read as rabbit.

The target in assay [2] is T2, rabbit serum albumin. In words: phage binding.

Positions of bridges follow the written chain, without caps; N, C: chain ends. No end group written: not given here.

As usually defined, the IC50 is the concentration that gives 50% inhibition. A higher IC50 goes with a need for much substance.

T2 sequence (P49065 25-608 limits assumed): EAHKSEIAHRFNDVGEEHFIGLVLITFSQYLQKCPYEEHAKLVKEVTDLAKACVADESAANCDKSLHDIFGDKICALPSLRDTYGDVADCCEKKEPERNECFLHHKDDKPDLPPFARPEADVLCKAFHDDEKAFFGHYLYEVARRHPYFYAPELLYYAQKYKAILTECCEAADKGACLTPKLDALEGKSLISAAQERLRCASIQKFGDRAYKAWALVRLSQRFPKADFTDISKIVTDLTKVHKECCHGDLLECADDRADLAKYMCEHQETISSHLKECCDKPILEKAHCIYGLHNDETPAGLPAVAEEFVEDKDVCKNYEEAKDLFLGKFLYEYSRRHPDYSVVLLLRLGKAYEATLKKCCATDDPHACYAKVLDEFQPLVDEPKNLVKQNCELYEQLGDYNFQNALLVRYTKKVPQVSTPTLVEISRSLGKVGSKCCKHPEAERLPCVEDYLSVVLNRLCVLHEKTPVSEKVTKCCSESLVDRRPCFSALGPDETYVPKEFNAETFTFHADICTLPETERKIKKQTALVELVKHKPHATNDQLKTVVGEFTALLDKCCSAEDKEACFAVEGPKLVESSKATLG
T1 sequence (P02770 25-608 limits assumed): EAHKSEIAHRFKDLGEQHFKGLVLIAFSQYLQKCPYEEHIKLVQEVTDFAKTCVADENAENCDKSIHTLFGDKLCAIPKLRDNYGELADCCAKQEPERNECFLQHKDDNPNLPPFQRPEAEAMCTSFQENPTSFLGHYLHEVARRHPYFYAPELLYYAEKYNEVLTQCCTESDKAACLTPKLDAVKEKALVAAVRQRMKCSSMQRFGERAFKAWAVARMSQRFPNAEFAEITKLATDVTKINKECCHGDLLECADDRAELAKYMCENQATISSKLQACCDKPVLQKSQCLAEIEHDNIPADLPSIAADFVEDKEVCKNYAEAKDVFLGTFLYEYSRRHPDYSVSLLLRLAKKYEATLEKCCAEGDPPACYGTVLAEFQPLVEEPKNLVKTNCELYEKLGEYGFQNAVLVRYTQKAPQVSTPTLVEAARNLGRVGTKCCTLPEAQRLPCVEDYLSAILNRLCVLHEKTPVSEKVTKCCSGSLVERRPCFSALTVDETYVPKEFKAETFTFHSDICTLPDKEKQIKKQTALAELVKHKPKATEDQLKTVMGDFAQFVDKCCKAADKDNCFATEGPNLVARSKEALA

With FEDFCLPNWGCLWGS (on phage) [RBC-R4], in the assay with rat serum albumin, the binding result is recorded as “binds”.

B1: SA20 (peptide)
peptide: Ac-QRLIEDICLPRWGCLWEDDF-NH2
modifications: not fully specified (bridges); printed as Ac QRLIEDICLPRWGCLWEDDF NH2; cysteine pairing not given here
notes: free peptide
As to B1, the IC50 with rabbit serum albumin [1] worked out at 260 nM.

B2: SA19 (peptide)
peptide: DICLPRWGCL-NH2
modifications: not fully specified (bridges); printed as DICLPRWGCLNH2; cysteine pairing not given here
notes: free peptide
The molecule B2 gave an IC50 in the assay with rabbit serum albumin [1] of 24500 nM.

For MWDVCFPDWGCLWDV (not fully specified (bridges); cysteine pairing not given here, on phage) [RBC-R15], in the assay with rat serum albumin, the binding result was “binds”.

Take GEDWCDSTLLAFDLCGEGAR (on phage) [BA-B44]: the binding result with rabbit serum albumin [2] is reported as “binds”.

Ac-RLIEDICLPRWGCLW-NH2 (disulfide 7-13 (inferred), free peptide) [SA31]: the IC50 in the assay with rabbit serum albumin [1] was found to be 200 nM.

For the molecule Ac-RLIEDICLPRWGCL-NH2 (disulfide 7-13 (inferred), free peptide) [SA33], the half-maximal inhibitory concentration (IC50) with rabbit serum albumin [1] was determined as 4310 nM.

B3: SA25 (peptide)
peptide: Ac-EDICLPRWGCLWED-NH2
modifications: not fully specified (bridges); printed as Ac EDICLPRWGCLWEDNH2; cysteine pairing not given here
notes: free peptide
In the assay with rabbit serum albumin [1], B3 displayed an IC50 of 2730 nM.

As to QGGMGDFCLPQWGCLWGEDL (on phage) [RB-R17], the binding result with rat serum albumin is “binds”.

Take WEDLCLPDWGCLWED (not fully specified (bridges); cysteine pairing not given here, on phage) [RBC-R5]: in the assay with rat serum albumin, the binding result was “binds”.

As for DSCGDLLRLGLECWA (on phage) [RD-R6], the binding result with rat serum albumin was “binds”.

Take Ac-DICLPRWGCLWED-NH2 (disulfide 3-9 (inferred), free peptide) [SA26]: the 50% inhibitory concentration (IC50) in the assay with rabbit serum albumin [1] was 3120 nM.

As to DTCADLVRLGLECWA (on phage) [RD-R2], the binding result with rat serum albumin is reported as “binds”.

Turning to DTCEDLVRLGLECWA (on phage) [RD-R5], in the assay with rat serum albumin, the binding result is reported as “binds”.

Take NTCADLVRLGLECWA (on phage) [RD-R7]: the binding result with rat serum albumin is reported as “binds”.

Take EFDLCLPTWGCLWED (on phage) [RBC-R13]: in the assay with rat serum albumin, the binding result is recorded as “binds”.

B4: SA18 (peptide)
peptide: ICLPRWGCLW-NH2
modifications: not fully specified (bridges); printed as ICLPRWGCLWNH2; cysteine pairing not given here
notes: free peptide
In the assay with rabbit serum albumin [1], B4 showed an IC50 of 125000 nM.

Turning to EWDVCFPAWGCLWDQ (on phage) [RBC-R18], the binding result with rat serum albumin is on record as “binds”.

With DTCSDLVGLGLECWA (on phage) [RD-R1], the binding result with rat serum albumin is listed as “binds”.

As to EEDVCLPVWGCLWEG (on phage) [RBC-R20], the binding result with rat serum albumin is listed as “binds”.

For SEDFCLPVWGCLWED (not fully specified (bridges); cysteine pairing not given here, on phage) [RBC-R9], in the assay with rat serum albumin, the binding result is “binds”.

B5: SA22 (peptide)
peptide: Ac-RLIEDICLPRWGCLWED-NH2
modifications: not fully specified (bridges); printed as Ac RLIEDICLPRWGCLWEDNH2; cysteine pairing not given here
notes: free peptide
In the assay with rabbit serum albumin [1], B5 yielded an IC50 of 430 nM.

With MELWCDSTLMAYDLCGDFNM (on phage) [BA-B39], the binding result with rabbit serum albumin [2] is listed as “binds”.

Molecule Ac-ICLPRWGCLWED-NH2 (disulfide 2-8 (inferred), free peptide) [SA27] had an IC50 with rabbit serum albumin [1] of 86700 nM.

With EEDLCLPVWGCLWGA (on phage) [RBC-R14], the binding result in the assay with rat serum albumin is “binds”.

On to LRIFEDICLPKWGCLWGEGF (on phage) [RB-B14], for which the binding result with rabbit serum albumin [2] and in the assay with rat serum albumin was “binds” each time.

Consider MDDICLHHWGCLWDE (on phage) [RBC-R1], for which the binding result with rat serum albumin is recorded as “binds”.

B6: RB-B3 (peptide)
peptide: QSYMEDICLPRWGCLSDDAS
modifications: not fully specified (bridges); cysteine pairing not given here; also: phage-displayed
notes: on phage
Take B6: the binding result in the assay with rabbit serum albumin [2] and with rat serum albumin was “binds” each time.

With VWDLCLPQWGCLWDE (on phage) [RBC-R11], the binding result in the assay with rat serum albumin is given as “binds”.

Ac-DICLPRWGCL-NH2 (disulfide 3-9 (inferred), free peptide) [SA34] yielded a concentration for half-maximal inhibition (IC50) with rabbit serum albumin [1] of 28200 nM.

Take Ac-IEDICLPRWGCLWE-NH2 (disulfide 5-11 (inferred), free peptide) [SA30]: the half-maximal inhibitory concentration (IC50) with rabbit serum albumin [1] is 1800 nM.

B7: SA23 (peptide)
peptide: Ac-LIEDICLPRWGCLWED-NH2
modifications: not fully specified (bridges); printed as Ac LIEDICLPRWGCLWEDNH2; cysteine pairing not given here
notes: free peptide
In the case of B7, the IC50 with rabbit serum albumin [1] came to 360 nM.

On to Ac-RLIEDICLPRWGCLWE-NH2 (disulfide 7-13 (inferred), free peptide) [SA29], for which the concentration for half-maximal inhibition (IC50) with rabbit serum albumin [1] was determined as 400 nM.

Take DICLPRWGCLW (on phage) [RC-R13]: in the assay with rat serum albumin, the binding result is on record as “binds”.

With DICLPVWGCLW (on phage; also called RC-R2; RC-R3) [RC-R1], the binding result with rat serum albumin is listed as “binds”.

Molecule Ac-EDICLPRWGCLW-NH2 (disulfide 4-10 (inferred), free peptide) [SA32] displayed a 50% inhibitory concentration (IC50) with rabbit serum albumin [1] of 2170 nM.

In the case of FEDLCVVRWGCLWGD (not fully specified (bridges); cysteine pairing not given here, on phage) [RBC-R6], the binding result with rat serum albumin was “binds”.

Turning to NWDLCFPDWGCLWDD (on phage) [RBC-R8], in the assay with rat serum albumin, the binding result is “binds”.

DTCDDLVQLGLECWA (on phage) [RD-R11]: the binding result with rat serum albumin is reported as “binds”.

Take MFDLCLPKWGCLWGN (not fully specified (bridges); cysteine pairing not given here, on phage) [RBC-R12]: the binding result with rat serum albumin is listed as “binds”.

With QGDFWDICLPRWGCLSGEGY (on phage) [RB-B10], the binding result with rabbit serum albumin [2] and with rat serum albumin was “binds” each time.

B8: SA24 (peptide)
peptide: Ac-IEDICLPRWGCLWED-NH2
modifications: not fully specified (bridges); printed as Ac IEDICLPRWGCLWEDNH2; cysteine pairing not given here
notes: free peptide
B8 came in with a half-maximal inhibitory concentration (IC50) in the assay with rabbit serum albumin [1] of 1380 nM.

With EWDVCLPHWGCLWDG (on phage) [RBC-R16], the binding result in the assay with rat serum albumin is “binds”.

Turning to WDDICFRDWGCLWGS (on phage) [RBC-R7], in the assay with rat serum albumin, the binding result is listed as “binds”.

For the molecule GENWCDWVLLAYDLCGEDNT (on phage) [BA-B37], in the assay with rabbit serum albumin [2], the binding result is “binds”.

In the case of MDDLCLPNWGCLWGD (not fully specified (bridges); cysteine pairing not given here, on phage) [RBC-R2], the binding result in the assay with rat serum albumin is recorded as “binds”.

For DFDLCLPDWGCLWDD (on phage) [RBC-R10], the binding result in the assay with rat serum albumin is “binds”.

For the molecule QMHMMDICLPKWGCLWGDTS (not fully specified (bridges); cysteine pairing not given here, on phage) [RB-B9], the binding result with rabbit serum albumin [2] and with rat serum albumin was “binds” each time.

For the origin of these results see patent US20060073152A1 (Genentech, published 2006).
